In patent US11827911B2, “Chimeric bacteriophage lysin with activity against Staphylococci bacteria” (priority 2008, dated 2023):

B1: AD 126: S. epidermidis autolysin amidase domain upstream of phiNM3 CWT domain (protein)
chain: MVSSQKTSSLPKYTPKVNSSINNYIRKKNMKAPRIEEDYTSYFPKYGYRNGVGRPEGIVVHDTANDNSTIDGEIAFMKRNYTNAFVHAFVDGNRIIETAPTDYLSWGAGPYGNQRFINVEIVHTHDYDSFARSMNNYADYAATQLQYYNLKPDSAENDGRGTVWTHAAISNFLGGTDHADPHQYLRSHNYSYAELYDLIYEKYLIKTKQVAPWGTTSTKPSQPSKPSGGTNNKLTVSANRGVAQIKPTNNGLYTTVYDSKGHKTDQVQKTLSVTKTATLGNNKFYLVEDYNSGKKYGWVKQGDVVYNTAKAPVKVNQTYNVKAGSTLYTVPWGTPKQVASKVSGTGNQTFKATKQQQIDKATYLYGTVNGKSGWISKYYLTTASKPSNPTKPSTNNQLTVTNNSGVAQINAKNSGLYTTVYDTKGKTTNQIQRTLSVTKAATLGDKKFYLVGDYNTGTNYGWVKQDEVIYNTAKSPVKINQTYNVKPGVKLHTVPWGTYNQVAGTVSGKGDQTFKATKQQQIDKATYLYGTVNGKSGWISKYYLLQGLMNKITNKVKPPAQKAVGKSASKITVGSKAPYNLKWSKGAYFNAKIDGLGATSATRYGDNRTNYRFDVGQAVYAPGTLIYVFEIIDGWCRIYWNNHNEWIWHERLIVKEVF
modifications: Chimeric of Staphylococcus epidermidis autolysin amidase domain and Staphylococcus aureus phage pniNM3 CWT domain
B2: AD 119: Twort lysin endopeptidase domain upstream of the lysostaphin CWT domain (protein)
chain: METLKQAESYIKSKVNTGTDFDGLYGYQCMDLAVDYIYHVTDGKIRMWGNAKDAINNSFGGTATVYKNYPAFRPKYGDVVVWTTGNFATYGHIAIVTNPDPYGDLQYVTVLEQNWNGNGIYKTELATIRTHDYTGITHFIRPNFATESSVKKKDTKKKPKPSNRDGLNKDKIVYDRTNINYNMVLQTPNTGWKTNKYGTLYKSESASFTPNTDIITRTTGPFRSMPQSGVLKAGQTIHYDEVMKQDGHVWVGYTGNSGQRIYLPVRTWNKSTNTLGVLWGTIK
modifications: Chimeric of Staphylococcus aureus bacteriophage Twort domain and Staphylococcus simulans metalloendopeptidase Lysostaphin CWT domain
B3: AD 107: lysostaphin CWT domain downstream of PlyB-catalytic domain (protein)
chain: MGYIVDMSKWNGSPDWDTAKGQLDLVIARVQDGSNYVDPVYKDYVAAMKARNIPFGSYAFCRFVSVEDAKVEARDFWNRGDKDSLFWVADVEVTTMSDMRAGTQAFIDELYRLGAKKVGLYVGHHKYEEFGAAQIKCDFTWIPRYGAKPAYPCDLWQYDEYGQVPGIGKCDLNRLNGDKSLDWFTGKGEEAVQLQTPNTGWKTNKYGTLYKSESASFTPNTDIITRTTGPFRSMPQSGVLKAGQTIHYDEVMKQDGHVWVGYTGNSGQRIYLPVRTWNKSTNTLGVLWGTIK
modifications: Chimeric of Bacillus-specific phage lysin PlyB catalytic domain and Staphylococcus simulans metalloendopeptidase Lysostaphin CWT domain
B4: AD 105: PlyB with its C-terminal CWT domain replaced by the putative C-terminal domain of S. aureus phage Twort lysin (protein)
chain: MGYIVDMSKWNGSPDWDTAKGQLDLVIARVQDGSNYVDPVYKDYVAAMKARNIPFGSYAFCRFVSVEDAKVEARDFWNRGDKDSLFWVADVEVTTMSDMRAGTQAFIDELYRLGAKKVGLYVGHHKYEEFGAAQIKCDFTWIPRYGAKPAYPCDLWQYDEYGQVPGIGKCDLNRLNGDKSLDWFTGKGEEAVQWNVNNYGTYYKSESATFKCTARQGIVTRYTGPFTTCPQAGVLYYGQSVTYDTVCKQDGYVWISWTTNGGQDVWMPVRTWDKNTDIMGQLWGDIY
modifications: Cimeric of Bacillus-specific phage lysin PlyB catalytic domain and Staphylococcus aureus bacteriophage Twort domain
B5: AD 112: S. epidermidis autolysin amidase domain upstream of the lysostaphin CWT domain (protein)
chain: MVSSQKTSSLPKYTPKVNSSINNYIRKKNMKAPRIEEDYTSYFPKYGYRNGVGRPEGIVVHDTANDNSTIDGEIAFMKRNYTNAFVHAFVDGNRIIETAPTDYLSWGAGPYGNQRFINVEIVHTHDYDSFARSMNNYADYAATQLQYYNLKPDSAENDGRGTVWTHAAISNFLGGTDHADPHQYLRSHNYSYAELYDLIYEKYLIKTKQVAPWGTTSTKPSQPSKPSGGTNNKLTVSANRGVAQIKPTNNGLYTTVYDSKGHKTDQVQKTLSVTKTATLGNNKFYLVEDYNSGKKYGWVKQGDVVYNTAKAPVKVNQTYNVKAGSTLYTVPWGTPKQVASKVSGTGNQTFKATKQQQIDKATYLYGTVNGKSGWISKYYLTTASKPSNPTKPSTNNQLTVAGQTIHYDEVMKQDGHTNNSGVAQINAKNSGLYTTVYDTKGKTTNQIQRTLSVTKAATLGDKKFYLVGDYNTGTNYGWVKQDEVIYNTAKSPVKINQTYNVKPGVKLHTVPWGTYNQVAGTVSGKGDQTFKATKQQQIDKATYLYGTVNGKSGWISKYYLLQTPNTGWKTNKYGTLYKSESASFTPNTDIITRTTGPFRSMPQSGVLKVWVGYTGNSGQRIYLPVRTWNKSTNTLGVLWGTIK
modifications: Chimeric of Staphylococcus epidermidis autolysin amidase domain and Staphylococcus simulans metalloendopeptidase Lysostaphin CWT domain

Experiments:
[1] = system: VISA strain Mu50; test: Checkerboard broth-microdilution assay; assay type: cell-based, Staphylococcus aureus; conditions: Staphylococcus aureus, VISA
Text: We used the checkerboard broth-microdilution assay to test the interaction of ClyS with vancomycin and with oxacillin. […] Isobolograms for ClyS with vancomycin and ClyS with oxacillin was plotted by transcribing the enzyme concentrations along the inhibitory line on the microtiter plate in an x/y plot.

[2] = system: S. aureus; test: Lytic assays of chimeric lysins against S. aureus; assay type: cell-based, Staphylococcus aureus; conditions: for lytic/killing activity against S. aureus: qualitative
Text: For this, the endopeptidase domain in Twort lysin (14) was used to construct chimera AD 119 (SEQ ID NO:3). […] To overcome low expression of AD 127 construct, the entire chimera gene was cloned into expression vector pJML6 to generate pAD 138.

[3] = Solubility of expressed lysins and chimeras
Procedure: In another embodiment, the lysin is a chimeric protein that comprises an endopeptidase domain of the S. aureus Twort lysin upstream of the phiNM3 CWT domain (SEQ ID NO:1). The chimeric polypeptide is preferably sufficiently soluble in phosphate buffered saline (PBS). Preferred levels of solubility in PBS for the chimeric lysins is at least about 1 mg/ml and more preferably at least about 3 mg/mL. in PBS. […] One example of such a lysin is provided in SEQ ID NO:2 (AD127), shown in FIG. 5A and consisting of the Twort lysin endopeptidase domain attached to the phiNM3 CWT domain (SEQ ID NO:1). The isolated polypeptide of SEQ ID NO:2 (AD 127) was constructed by engineering S. epidermidis autolysin amidase and Twort lysin endopeptidase domains upstream of phiNM3 CWT domain, respectively.
Traditionally, Bacillus-specific lysins are expressed at high levels and are soluble in E. coli. Therefore, our first attempt was to engineer a 16-amino acid peptide (4) that is conserved in several S. aureus-specific lysins (Lu J Z, Fujiwara T, Komatsuzawa H, Sugai M, Sakon J. 2006. Cell wall-targeting domain of glycylglycine endopeptidase distinguishes among peptidoglycan cross-bridges. (Lue et al. (2006) J. Biol. Chem. 281(1):549-58) The catalytic domain of the Bacillus-specific lysin PlyB was used to generate chimera AD 103 (FIG. 4) (SEQ ID NO: 13). The chimeras were tested for expression, solubility and activity. Then the entire C-terminal CWT domain of PlyB (6) was replaced by the putative C-terminal domain of S. aureus phage Twort lysin (8) to obtain AD 105 (SEQ ID NO: 14). […] Since the lysostaphin catalytic domain […] (10) in AD 112 was of bacterial origin, we attempted to engineer a phage-derived catalytic domain upstream of the lysostaphin CWT. For this, the endopeptidase domain in Twort lysin (14) was used to construct chimera AD 119 (SEQ ID NO:3).

Molecule | MIC [1] | lytic/killing activity against S. aureus [2] | solubility of the expressed protein [3] | effect on S. aureus cells when exposed [2]
CN[C@H](CC(C)C)C(=O)N[C@H]1C(=O)N[C@@H](CC(N)=O)C(=O)N[C@H]2C(=O)N[C@H]3C(=O)N[C@H](C(=O)N[C@H](C(=O)O)c4cc(O)cc(O)c4-c4cc3ccc4O)[C@H](O)c3ccc(c(Cl)c3)Oc3cc2cc(c3O[C@@H]2O[C@H](CO)[C@@H](O)[C@H](O)[C@H]2O[C@H]2C[C@](C)(N)[C@H](O)[C@H](C)O2)Oc2ccc(cc2Cl)[C@H]1O [vancomycin, reference compound] | 8 µg/mL |  |  | 
B1 |  | no expression or activity |  | 
B2 |  | did not show significant activity | soluble | 
B3 |  | no activity | poor | 
B4 |  | not active |  | 
B5 |  | no lytic activity | very soluble | clumped
